Numbering of substitutions follows the chain as printed.
T1: ARG2 from CCM of LNCaP, A673 and A2780-Cis (Homo sapiens, UniProt P78540)
T1 construct: ARG2 is released into the CCM from LNCaP, A673 and A2780-Cis cell lines; endogenous in cells; host or cells: cell conditioned medium of cancer cell lines (LNCaP, A673, A2780-Cis and others)
T1 sequence (P78540 23-354): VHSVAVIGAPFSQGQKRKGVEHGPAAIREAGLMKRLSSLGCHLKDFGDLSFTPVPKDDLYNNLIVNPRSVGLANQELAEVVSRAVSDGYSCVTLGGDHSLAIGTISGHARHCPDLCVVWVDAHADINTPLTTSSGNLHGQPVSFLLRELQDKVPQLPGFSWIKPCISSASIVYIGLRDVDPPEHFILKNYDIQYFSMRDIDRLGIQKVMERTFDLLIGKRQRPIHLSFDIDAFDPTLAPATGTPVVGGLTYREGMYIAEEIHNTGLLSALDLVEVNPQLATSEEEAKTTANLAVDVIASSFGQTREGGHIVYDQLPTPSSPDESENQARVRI

T2: human ARG2 (Homo sapiens, UniProt P78540)
T2 construct: made in house
T2 sequence (P78540 with tags, fused parts or gaps): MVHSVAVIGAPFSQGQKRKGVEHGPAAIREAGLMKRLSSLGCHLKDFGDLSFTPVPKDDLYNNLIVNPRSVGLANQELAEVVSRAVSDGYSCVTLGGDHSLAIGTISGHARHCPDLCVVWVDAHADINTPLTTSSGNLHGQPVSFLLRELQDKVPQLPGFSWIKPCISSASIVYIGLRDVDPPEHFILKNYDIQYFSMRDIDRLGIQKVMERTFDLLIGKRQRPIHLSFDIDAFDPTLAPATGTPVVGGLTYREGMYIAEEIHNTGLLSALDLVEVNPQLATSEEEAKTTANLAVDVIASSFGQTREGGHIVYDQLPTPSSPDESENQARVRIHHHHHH

B1: C0021061: anti-ARG2 antibody, first generation lead, VH SEQ ID NO: 62, VL SEQ ID NO: 67 (antibody, listed as Homo sapiens, V domains shown)
VH: EVQLLESGGGLVQPGGSLRLSCAASGFTFSSYAMSWVRQAPGKGLEWVSAKPTDAGSTYYADSVKGRFTISRDNSKNTLYLQMNSLRAEDTAVYYCARLRADLGLYMDLWGRGTLVTVSS
VL: QSVLTQPPSVSAAPGQKVTISCSGSSSNIGNHYVSWYQQLPGTAPKLLIYNTVYPKSGIPDRFSGSKSGTSATLGITGLQTGDEADYYCGTWDSSLSALVFGGGTKLTVL
modifications: C0021061
B2: C0021158: anti-ARG2 antibody, second generation lead, VH SEQ ID NO: 272, VL SEQ ID NO: 277 (antibody, listed as Homo sapiens, V domains shown)
VH: EVQLLESGGGLVQPGGSLRLSCAASGFTFRYEVAAWVRQAPGKGLEWVSAISGPIPKGYYADSVKGRFTISRDNSKNTLYLQMNSLRAEDTAVYYCARLRADLGLYMDLWGRGTLVTVPS
VL: QSVLTQPPSVSAAPGQKVTISCSGSSSNIGNHYVSWYQQLPGTAPKLLIYDNSERTAGVPDRFSGSKSGTSATLGITGLQTGDEADYYCGTWDELTSNLVFGGGTKLTVL
modifications: C0021158
B3: C0021181: anti-ARG2 antibody, VH SEQ ID NO: 342, VL SEQ ID NO: 347 (antibody, listed as Homo sapiens, V domains shown)
VH: EVQLLESGGGLVRPGGSLRLSCAASEFTFRYDYHVWVRQAPGKGLEWVSAISGSGGSTYYADSVKSRFTISRDNSKNTLYLQMNSLRAEDTAVYYCARLRADLGLYMDLWGRGTLVTVSS
VL: B2 VL with T19A, I20V, N31S, A57S, V59I, K106R
modifications: C0021181

Assays:
[1] = target: T1, ARG2 from CCM of LNCaP, A673 and A2780-Cis; test: ELISA binding to ARG2 from CCM of cancer cell lines; details: biotinylated IgG at 10 μg/ml as detection antibody, FIG. 18
From the text: In this experiment the presence of ARG2 in CCM samples was validated using commercial ARG2 ELISA kit (Cloud-Clone Corp., cat. SED796Hu). Additionally, the protocol was modified to include 1st generation IgG C0021061 and 2nd generation IgG C0021158 as detection antibodies to confirm binding of ARG2 IgG's to ARG2 expressed from cancer cell lines (FIG. 18).
The commercial kit is a 96-well plate pre-coated with anti-ARG2, which uses sandwich ELISA to quantify ARG2 in samples. Standards, biotinylated detection antibody, detection, substrate, and stop reagents are all provided in the kit. […] 100 μl of diluted CCM/media control was used for each well of kit and ELISA was performed following manufacturer's protocol. Each sample was run in duplicate. In parallel, CCM/media control samples were also included to test for binding of C0021061 and C0021158 to ARG2 in CCM samples. […] At the end of the assay, absorbance at 450 nm was read out on PheraStar (BMG). The absorbance values of standards were used to make standard curve and was used to interpolate ARG2 levels in CCM samples (where PAD detection antibody supplied with the kit was used). Similarly, absorbance reads from wells that received C0021061 and C0021158 were used to […] and 2nd generation ARG2 IgGs (C0021061 and C0021158 respectively) bind to ARG2 in CCM samples (FIG. 18).

human ARG2 = target: T2, human ARG2; test: X-ray co-crystal structures of ARG2-Fab complexes, buried surface area of epitope residues; details: total of interface residues
Protocol: The construct used for crystal trials was ARG2 (23-354) containing a C-terminal Gly3 linker and His10-tag (ARG2+C0020187, SEQ ID NO: 355: huARG2-His10) or a simple C-terminal His6-tag (ARG2+C0021181 and ARG2+C0021158, SEQ ID NO: 357: huARG2-His6). Crystals suitable for structure determination were obtained using the sitting drop methodology. For ARG2+C0020187, 0.2 μl of complex solution (2.0 mg/ml, ARG2:Fab=3:1, purified by gel filtration) were mixed with 0.1 μl of crystallisation solution containing 2 M (NH4)2SO4. Round, disc-shaped crystals (60×60×20 μm) appeared after 2 days. For ARG2+C0021181, 0.5 μl of complex solution (6.3 mg/ml) were mixed with 0.5 μl of a crystallisation solution containing 100 mM MMT (malic acid:MES:tris=1:2:2) pH 5.0, 20% glycerol, 10% PEG4000, 15 mM NaNO3, 15 mM Na2HPO4, 15 mM (NH4)2SO4. Hexagonal disc-shaped crystals (100×100×20 μm) appeared after 2 days and reached their final size after a week. For ARG2+C0021158, 0.25 μl of complex solution (7.0 mg/ml, containing 20% diluted microseeds of an ARG2+C0021181 crystal) were mixed with 0.25 μl of a crystallisation solution containing 2 M (NH4)2SO4. Crystals of irregular shape (60×60×60 μm) appeared after 2 days. For the ARG2+C0020187 and ARG2+C0021158 crystals, 3 M (NH4)2SO4 and 5% glycerol were added for cryo-protection, after which the crystals were cryo-cooled by plunging them into liquid N2. Data sets were collected at DLS, beamline i04-1 (ARG2+C0020187) or BESSY II, HZB, beamline MX-14-1 (ARG2+C0021181 and ARG2+C0021158). The crystals of ARG2+C0020187 diffracted up to 3.25 Å in space group P 65 2 2 with unit cell parameters a=b=138 Å, c=551 Å.
The structures were solved by molecular replacement using Phaser in the CCP4 program suite using the reported structure of ARG2 (PDB-ID 4HZE) and previously solved high-resolution structures of the individual Fabs in the molecular replacement search. For ARG2+C0020187 the asymmetric unit contained three copies each of ARG2 and the Fab, respectively, with the CL and CH domains being present in different orientations, one of pair which was poorly defined in the electron density. For ARG2+C0021181 and ARG2+C0021158 the asymmetric units contained one copy of ARG2 and one copy of the Fab, however for ARG2+C0021181 only the VL and VH domains of the Fab were well defined, with CL and CH domains most likely being present in two orientations (reflected by the increased B factor and overall worse electron density). Automated and manual refinement was then performed by alternating between using REFMAC5 (with twin- and TLS refinement turned on towards finalising the structures for ARG2+C0021181 and ARG2+C0021158) and COOT, respectively. […]

| Molecule | binding to ARG2 from CCM of LNCaP, A673 and A2780-Cis (ELISA) [1] | % buried (human ARG2; C0021158 complex) | ASA (solvent accessible surface area) (human ARG2; C0021158 complex) | BSA (buried surface area) (human ARG2; C0021158 complex) | % buried (human ARG2; C0021181 complex) |
| --- | --- | --- | --- | --- | --- |
| B1 | binding |  |  |  |  |
| B2 | binding | 50% | 2012.6 Å^2 | 1000.3 Å^2 |  |
| B3 |  |  |  |  | 50% |
